Consider eight molecules from patent US20180334496A1 (KODIAK SCIENCES, published 2018).

Test [1] concerns the target T1, recombinant human CFD mutant 1 (R157A, R207A), His-tagged (human, UniProt P00746 26-253).
T1 construct: positions are linear positions in the mature protein; also called rhCFD-mut1-His; Mut1
In words: ELISA. In general terms: ELISA stands for enzyme-linked immunosorbent assay.

Test [2] concerns the target T2, human complement factor D purified from serum (human, UniProt P00746 26-253).
T2 construct: serum-purified (CompTech); also called hCFD-Comptech; CFD

For test [3], the target named is T1, recombinant human CFD mutant 1 (R157A, …). In words: ELISA, Mut1 Binding, Bin 2.
The target of test [4] is T3, recombinant cynomolgus CFD, His-tagged (cynomolgus).
T3 construct: also called rcyCFD-His; recombinant Cyno-CFD
In words: SPR MX96.

Test [5] has as its target T4, recombinant human CFD, His-tagged (human, UniProt P00746 26-253).
T4 construct: also called rhCFD-His
Put plainly: SPR MX96.

Test [6] concerns the target T2, human complement factor D purified from …. Put plainly: SPR MX96.
Test [7] shares this target. In words: cell-based or functional assay.
In test [8] the target is T5, human Complement Factor D (serum purified) (human, UniProt P00746 26-253).
T5 construct: also called CFD; FD
Put plainly: KinExA in solution, 37 degrees; free CFD captured on OG1931 beads and detected with KCD004-A647. A general note: A kinetic exclusion assay measures how much of one partner remains free in solution.

Test [9] addresses T5, human Complement Factor D (serum …). Put plainly: SPR (Biacore), antibody captured on Protein A chip, serum purified human CFD as analyte, 25 degrees. (In general: In SPR one partner is held on a chip, and binding of the other changes the refractive index at the surface.)
The target is the same in test [10]. In words: cell-based or functional assay.
In test [11] the target is T6, serum purified human Complement Factor D (human, UniProt P00746 26-253).
T6 construct: Serum purified protein flowed over the captured antibodies; also called CFD; human CFD
In words: SPR Biacore, antibody on protein A chip, single cycle kinetics, 37 C.

In test [12] the target is T6, serum purified human Complement Factor D. Described as above. This is another data set of the same source.
Test [13] has the same target. Put plainly: SPR Biacore T200, biotinylated OG1965 captured on neutravidin CM5 chip, single cycle kinetics, 25 C.
Test [14] deals with T7, recombinant cynomologus Complement Factor D (cynomolgus).
T7 construct: also called cyCFD; cyno CFD
In words: SPR Biacore, antibody on protein A chip, cyCFD in flow, single cycle kinetics, 37 C.

Test [15] has as its target T6, serum purified human Complement Factor D. In words: SPR Biacore, antibody on protein A chip, single cycle kinetics, 25 C.
The target is the same in test [16]. The test is described as above. This is another data set of the same source.
For test [17] the target is unchanged. In words: SPR Biacore T200, biotinylated OG1965 captured on neutravidin CM5 chip, single cycle kinetics, 37 C.
The target is the same in test [18]. In words: SPR Biacore, 37 C.
The target is the same in test [19]. Put plainly: SPR Biacore, 37 C. The source holds these as a separate data set.
Test [20] has the same target. In words: SPR Biacore, 25 C.
For test [21] the target is unchanged. Put plainly: SPR Biacore, 25 C. The source holds these as a separate data set.

“And” between values parts separate entries of the source, which are not always exact repeats. Equal values may be shown once. Read-outs that look alike come from different tables or passages of the source.

T6 sequence (P00746 26-253): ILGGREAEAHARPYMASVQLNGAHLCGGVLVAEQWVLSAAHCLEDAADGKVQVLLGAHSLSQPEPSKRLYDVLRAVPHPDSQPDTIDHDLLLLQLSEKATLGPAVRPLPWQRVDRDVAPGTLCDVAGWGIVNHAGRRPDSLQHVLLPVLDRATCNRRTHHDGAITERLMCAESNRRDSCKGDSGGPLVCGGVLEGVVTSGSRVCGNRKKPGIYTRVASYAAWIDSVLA
T4 sequence (P00746 26-253 limits assumed): as the sequence (P00746 26-253) above
T2 sequence (P00746 26-253): as above
T5 sequence (P00746 26-253): as above
T1 sequence (P00746 26-253 R182A/R232A limits assumed): as the sequence (P00746 26-253) above, with R157A, R207A counted along it

B1: KCD118 (antibody, V domains shown)
VH: EVQLQQSGPELVKPGASVKISCKAFGYTFTDYYKNWMRQRHGESLEWIGDINPNSGDANYNQKFKGKATLTVDKSSSTAYMELRSLTSEDSAVYYCAREGPSFAYWGHGTLVTVSA
VL: DVLMTQTPLSLPVSLGDQASISCRSSQTIVHSNGDTYLEWYLQKPGQSPNLLIYKVSNRFSGVPDRFSGSGSGTDFTLKISRVEAEDLGIYYCFQGSHVPPTFGGGTKLEIK
notes: chimeric
By Kd is commonly meant a measure of binding affinity in units of concentration. Consider B1, for which the “Mut1 Binding (% wt)” value in test [1] came to 0.762 % wt. Also, the Kd in [2] is 88.3 pM; in test [4], 1300 pM; in test [5], 540 pM; in test [6], 760 pM. The binding result in [3] was “no binding”. Besides, the “CFD Enzymatic activity (% of Neg Ctrl)” value in test [7] is 14 % of Neg Ctrl.

B2: KCD005 (antibody, V domains shown)
VH: EVQLQQSGPELVKPGASVKISCKASGYTFTDHYMNWVKQSHGKSLEWIGDINPNNGGTSCNQKFKGKATLTVDKSSSTAYMELRSLTSGDSAVYYCTREGASFAFWGQGTLVTVSA
VL: DVLMTQTPLSLPVSLGDQASISCRSSQSIVHSNGDTYLEWYLQKPGQSPKLLIYKVSNRFSGVPDRFSGSGSGTDFTLKISRVEAEDLGVYYCFQGSHVPVTFGAGTKLELK
notes: chimeric
On to B2, for which, in [1], the “Mut1 Binding (% wt)” value was 1.79 % wt. Also, the Kd in [2] was found to be 726 pM; in [4], 2300 pM; in test [5], 1200 pM; in test [6] it was 1400 pM. The binding result in test [3] is reported as “no binding”. Moreover, in test [7], the “CFD Enzymatic activity (% of Neg Ctrl)” value was 49.2 % of Neg Ctrl.

B3: KCD121 (antibody, V domains shown)
VH: EVQLQQSGPELVKPGASVKISCKASGYTFTDYYKNWMRQRHGESLEWIGDINPNNGDTSYNQKFRGKATLTVDKSSSTAFMELRSLTSEDSAVYYCAREGPSFAYWGQGTLVTVSA
VL: DVLMTQTPLSLPVSLGDQASISCRSNQTIVHSNGDTYLEWYLQKPGQSPNLLIYKVSNRFSGVPDRFSGSGSGTDFTLRISRVEAEDLGVYYCFQGSHVPPTFGGGTKLEIK
notes: chimeric
Regarding B3, the “Mut1 Binding (% wt)” value in test [1] is 0.602 % wt. Also, the Kd was found to be 293 pM in test [2], 2900 pM in [4], 1300 pM in test [5] and 1800 pM in test [6]. Also, the binding result in [3] was “no binding”. Besides, in test [7], the “CFD Enzymatic activity (% of Neg Ctrl)” value was 16.7 % of Neg Ctrl.

B4: KCD123 (antibody, V domains shown)
VH: EVHLQQSGPELVKPGASVKISCKASGYTFTDFYKNWMRQRHGESLEWIGDINPNNGGTNYNQKFKGKATLTVDKSSSTAYMELRSLTSEDSAVYYCAREGPSFAYWGQGTLVTVSA
VL: DVLMTQTPLSLPVSLGDQASISCRSSQTIVHSNGDTYLEWYLQKPGQSPNLLIYKVSNRFSGVPDRFSGSGSGTDFTLKISRVEAEDLGVYYCFQGSHVPPTFGGGTKLEIK
notes: chimeric
In the case of B4, the “Mut1 Binding (% wt)” value in [1] came out at 2.91 % wt. The Kd in test [2] was 277 pM; in test [4], 2900 pM; in [5], 1300 pM; in [6] it was 2800 pM. Moreover, the binding result in test [3] is “no binding”. Also, the “CFD Enzymatic activity (% of Neg Ctrl)” value in test [7] was 18.7 % of Neg Ctrl.

B5: OG1965 (antibody, IgG1, V domains shown)
VH: EVQLVESGGGLVQPGGSLRLSCAASGYTFTDYYINWVRQAPGKGLEWIGDINPITGDTDYNADFKRRFTFSLDTSKSTAYLQMSSLRAEDTAVYYCTREGPSFAYWGQGTLVTVSS
VL: DIQLTQSPSSLSASVGDRVTITCRSSQTIVHSNGDTYLEWYQQKPGKAPNLLIRKVSNRFSGVPSRFSGSGSGTDFTLTISSLQPEDFATYYCFQGSHVPVTFGQGTKVEIKR
notes: also called 34I54I59D84S/54R101V; 34I54I59D84S (heavy) / 54R101V (light)
As a reminder, the kon is the second-order rate constant of association. In [8], B5 returned a Kd of 5.86 pM and a kon of 3.06e+07 M⁻¹ s⁻¹. Also, in test [9], the Kd was 2.5 pM and the kon came to 2.52e+07 M⁻¹ s⁻¹. For the same molecule, in test [10], the “EC50 (nM) in hemolysis assay (rabbit RBC, normal human serum)” value was found to be 1.74 nM.

B6: 34I54I59D84S / 54R101V (antibody, human IgG1, V domains shown)
VH: EVQLVESGGGLVQPGGSLRLSCAASGYTFTDYYINWVRQAPGKGLEWIGDINPITGDTDYNADFKRRFTFSLDTSKSTAYLQMSSLRAEDTAVYYCTREGPSFAYWGQGTLVTVSS
VL: DIQLTQSPSSLSASVGDRVTITCRSSQTIVHSNGDTYLEWYQQKPGKAPNLLIRKVSNRFSGVPSRFSGSGSGTDFTLTISSLQPEDFATYYCFQGSHVPVTFGQGTKVEIKR
notes: Human IgG1 kappa; also called OG1965
For orientation: koff means a measure of how fast the partners let go of each other. For B6, the Kd in test [11] worked out at 5.04 pM; in test [12], 5.04 pM; in test [13], 3.64 pM; in [14] it was 28 pM; in test [15] it was 4.37 pM; in test [16] it was 4.37 pM. Further, the Kd in test [17] turned out to be 9.56 pM. In addition, the koff in test [11] amounted to 0.000202 s⁻¹; in [12] it was 0.000202 s⁻¹; in test [13], 5.08e-05 s⁻¹; in test [14] it was 0.000978 s⁻¹; in [15] it was 9.02e-05 s⁻¹; in test [16] it was 9.02e-05 s⁻¹. Besides, the koff in test [17] was determined as 0.000241 s⁻¹. Further, the kon amounted to 4e+07 M⁻¹ s⁻¹ in test [11]; 4e+07 M⁻¹ s⁻¹ in [12]; 1.4e+07 M⁻¹ s⁻¹ in test [13]; 3.49e+07 M⁻¹ s⁻¹ in [14]; 2.06e+07 M⁻¹ s⁻¹ in test [15]; 2.06e+07 M⁻¹ s⁻¹ in test [16]. Besides, the kon in [17] came out at 2.55e+07 M⁻¹ s⁻¹.

B7: 31S54I59D / 54R101V (antibody, V domains shown)
VH: EVQLVESGGGLVQPGGSLRLSCAASGYTFTSYYMNWVRQAPGKGLEWIGDINPITGDTDYNADFKRRFTFSLDTSKSTAYLQMNSLRAEDTAVYYCTREGPSFAYWGQGTLVTVSS
VL: DIQLTQSPSSLSASVGDRVTITCRSSQTIVHSNGDTYLEWYQQKPGKAPNLLIRKVSNRFSGVPSRFSGSGSGTDFTLTISSLQPEDFATYYCFQGSHVPVTFGQGTKVEIKR
notes: KCD119 TAF variant
Consider B7, for which the Kd was 6.91 pM in test [18]; 8.17 pM in [19]; 6.05 pM and 6.91 pM and 8.17 pM in test [11]; 3.66 pM in [20]; 8.36 pM in test [21]; 7.79 pM and 3.66 pM and 8.36 pM in test [16]. Besides, the koff in test [18] was 0.000214 s⁻¹; in test [19] it was 0.000227 s⁻¹; in [11] it was 0.00021 s⁻¹ and 0.000214 s⁻¹ and 0.000227 s⁻¹; in test [20], 5.12e-05 s⁻¹; in [21], 0.00012 s⁻¹; in test [16], 7.94e-05 s⁻¹ and 5.12e-05 s⁻¹ and 0.00012 s⁻¹. For the same molecule, the kon in test [18] was 3.09e+07 M⁻¹ s⁻¹; in test [19] it was 2.78e+07 M⁻¹ s⁻¹; in test [11] it was 3.48e+07 M⁻¹ s⁻¹ and 3.09e+07 M⁻¹ s⁻¹ and 2.78e+07 M⁻¹ s⁻¹; in [20], 1.4e+07 M⁻¹ s⁻¹; in test [21] it was 1.44e+07 M⁻¹ s⁻¹; in test [16], 1e+07 M⁻¹ s⁻¹ and 1.4e+07 M⁻¹ s⁻¹ (2×).

B8: 31S54I59D84S / 54R101V (antibody, V domains shown)
VH: EVQLVESGGGLVQPGGSLRLSCAASGYTFTSYYMNWVRQAPGKGLEWIGDINPITGDTDYNADFKRRFTFSLDTSKSTAYLQMSSLRAEDTAVYYCTREGPSFAYWGQGTLVTVSS
VL: DIQLTQSPSSLSASVGDRVTITCRSSQTIVHSNGDTYLEWYQQKPGKAPNLLIRKVSNRFSGVPSRFSGSGSGTDFTLTISSLQPEDFATYYCFQGSHVPVTFGQGTKVEIKR
notes: also called 31554159D845 / 54R101V
Take B8: the dissociation constant (Kd) in [18], in test [11], in [20] and in test [16] was 6.13 pM in each case. Besides, the koff in test [18] was 0.000174 s⁻¹; in [11], 0.000174 s⁻¹; in [20], 9.14e-05 s⁻¹; in test [16], 9.14e-05 s⁻¹. Further, the kon in test [18] came to 2.84e+07 M⁻¹ s⁻¹; in test [11], 2.84e+07 M⁻¹ s⁻¹; in test [20], 1.49e+07 M⁻¹ s⁻¹; in test [16] it was 1.49e+07 M⁻¹ s⁻¹.
